# Patent publication EP0785948B1
# Target: KGF receptor (membrane preparations from Balb/MK mouse epidermal keratinocytes) (mouse) (UniProt P21803)
# Experiment: radioreceptor competition against 125I-labeled E. coli KGF, Balb/MK membrane preparations
# KGF receptor (membrane preparations from Balb/MK mouse epidermal keratinocytes) (mouse), sequence (P21803 22-821): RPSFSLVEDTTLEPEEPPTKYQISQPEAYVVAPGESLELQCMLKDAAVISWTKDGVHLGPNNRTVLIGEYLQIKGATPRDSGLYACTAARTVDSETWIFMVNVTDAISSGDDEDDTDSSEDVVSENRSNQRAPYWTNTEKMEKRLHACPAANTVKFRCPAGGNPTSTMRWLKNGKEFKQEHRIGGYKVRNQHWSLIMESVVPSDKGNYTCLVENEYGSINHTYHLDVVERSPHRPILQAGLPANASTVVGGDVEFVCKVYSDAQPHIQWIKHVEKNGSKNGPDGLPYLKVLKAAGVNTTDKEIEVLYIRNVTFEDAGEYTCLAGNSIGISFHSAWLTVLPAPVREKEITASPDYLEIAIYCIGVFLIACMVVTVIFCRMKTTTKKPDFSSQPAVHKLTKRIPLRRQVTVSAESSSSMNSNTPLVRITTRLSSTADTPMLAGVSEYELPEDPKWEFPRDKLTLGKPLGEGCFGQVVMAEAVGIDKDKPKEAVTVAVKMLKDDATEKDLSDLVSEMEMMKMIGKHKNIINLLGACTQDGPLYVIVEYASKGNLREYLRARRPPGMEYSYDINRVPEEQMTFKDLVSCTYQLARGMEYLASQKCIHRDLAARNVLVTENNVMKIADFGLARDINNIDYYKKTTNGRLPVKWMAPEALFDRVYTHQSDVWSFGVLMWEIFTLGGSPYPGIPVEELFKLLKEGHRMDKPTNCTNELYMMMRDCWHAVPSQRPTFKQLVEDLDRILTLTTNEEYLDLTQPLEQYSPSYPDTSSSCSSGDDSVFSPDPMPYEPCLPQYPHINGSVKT
row,KGF concentration to compete receptor binding with I^125-labeled KGF at 60% uncompetition rate [ng/mL],Substance
1,89.1,"KGF-b (CHO-derived N-terminally truncated unglycosylated KGF, about 17 kDa, cleaved at Arg23-Ser24) (ligand)"
2,65.8,"E. coli-derived, full-length native KGF (keratinocyte growth factor) (ligand)"
3,93.5,"KGF-a (CHO-derived glycosylated recombinant KGF, 25-29 kDa form) (ligand)"
